Key:
[1] = In-life pharmacokinetics, single IP dose; settings: CD-1 mice
Procedure: General Procedure: A single-dose study was conducted in CD-1 mice. Groups (12 animals in each group) were administered an intraperitoneal (IP) dose of either Taxol (10 mg/kg), Compound 3 (38.4 mg/kg), or Compound 5 (38.4 mg/kg). Serial or terminal plasma samples (n=3 per timepoint) were collected from study animals at pre-determined times post-dose. Each mouse was serial bled 2 times (orbital bleeds) and one terminal bleed. The samples were collected in pre-chilled tubes for all steps. Upon completion of the in-life phase, the samples were analyzed using LC-MS/MS.
Assay Procedures: For analysis of analytes in mouse plasma, a 50.0 μL aliquot of each study sample was extracted with protein precipitation using 200 μl of 5% formic acid in methanol. Internal standards were added by adding 25.0 μL methanol containing 250 ng/mL tolbutamide and 1000 ng/mL Taxol-d5.
For Compound 5 and Compound 3 analysis, following centrifugation at 4000 rpm for 10 minutes, 150 μL of the supernatant was transferred to a clean 96 well collection plate for LC-MS/MS analysis.
For Taxol analysis, following centrifugation at 4000 rpm for 10 minutes, 75.0 μL of the supernatant was transferred into a clean 96 well collection plate containing 75.0 μL of deionized water. The plate was then capped and vortexed at 1650 rpm for 3 minutes prior to LC-MS/MS analysis.
Preparation of Standards and Quality Controls: Calibration standards of Compound 3 in mouse plasma were prepared on wet ice in blank mouse plasma at concentrations of 5.00, 10.0, 50.0, 100, 200, 250, 450, and 500 ng/mL. The low quality control ([LQC], 15.0 ng/mL), medium quality control ([MQC], 120 ng/mL) and high quality control ([HQC], 400 ng/mL) were prepared in blank mouse plasma.
Calibration standards of Taxol in mouse plasma were prepared on wet ice in blank mouse plasma at concentrations of 2.50, 5.00, 25.0, 125, 625, 1250, 2250, and 2500 ng/mL. The LQC, (7.50 ng/mL), MQC (120 ng/mL), and HQC (2000 ng/mL) were prepared in blank mouse plasma.
Sample Analyses: Mouse plasma samples were received from the in-life and were stored in a freezer set to −80° C.
Study samples were analyzed in 2 batches. At a minimum, each batch included the following: one set of calibration standards, a matrix blank (blank mouse plasma), a control-zero sample (blank mouse plasma with internal standard), and duplicate QC samples at 3 concentration levels (low, medium, and high) in addition to the study samples. Within each batch, the study samples were bracketed by calibration standards or QC samples.
Data Acquisition and Processing: The LC-MS/MS data acquisition was performed on an Agilent 1290 Infinity II HPLC system coupled with an AB SCIEX API 6500+ mass spectrometer. Chromatograms were integrated using Analyst 1.6.3 software. A weighted (1/x2, x=concentration) linear regression was used to generate the calibration curves and the regression was performed using Analyst 1.6.3 software. The concentration of the analyte in the samples was calculated using the peak area ratios of analyte to internal standard based on the calibration curve.

[2] = system: breast cancer MCF7/MBA-MD-231 cells; test: CCK-8 cytotoxicity / anti-proliferation assay, MCF7/MBA-MD-231; assay type: cell-based; settings: all tested concentrations (500-4000 nM)
Procedure: (§1) Cytotoxicity Assay—CCK8 Cancer Cells
(§2) The CCK-8 assay was applied to study the cytotoxicity of the peptide drug conjugates and their inhibition of proliferation of cancer cells. First, 2˜10×10^3 cells (depending on the rate of growth of different cell lines) with 100 μL, DMEM media were seeded in normal culture medium into each well of a 96-well plate. The cells were then cultured overnight at 37° C. with 4˜5% CO2. Different doses (4000, 2000, 1000, 500 nM for Hep3B, Hep G2 and MCF7/MBA-MD-231; 1000, 333.3, 100.0, 33.33, 3.333, 1.000, 0.333 nM for MCF7/ADR, 22Rv1, CNE1, HCT116, DLD-1) of Taxol and peptide drugs were added. After 48˜72 hour incubation, CCK-8 solution was added to each well. The cells were then incubated at 37° C. for 4 hours. The optical density was measured at 450/650 nm using a multiscan spectrometer (PerkinElmer's EnSpire Multilabel Plate Reader). The optical density is linearly proportional to the number of living cells in the sample: […]

[3] = system: Hep G2 cells; test: CCK-8 cytotoxicity / anti-proliferation assay, Hep G2; assay type: cell-based; settings: 2000 nM
Procedure: as §1, §2

[4] = system: human pancreatic cancer (BXPC-3) cells; test: Efficacy against pancreatic cancer; assay type: in vivo, mice; settings: BXPC-3 model; 9.6 mg/kg QD5 (days 0, 5, 10); vs vehicle
Procedure: Following the procedure described in Biological Example 5, mice were injected with human pancreatic cancer (BXPC-3) cells and treated with Compound 3 (9.6 mg/kg) QD5 (dosing on days 0, 5, and 10) to study the efficacy of Compound 3. […] FIG. 11 is a graph comparing the fluorescence area on Day 17 of the study of the mice administered vehicle and the mice administered Compound 3. FIG. 12 is a graph comparing the tumor weight of the mice administered vehicle and the mice administered Compound 3 on Day 17.

[5] = system: human gastric cancer (NUGC-4) cells; test: Efficacy against gastric cancer; assay type: in vivo, mice; settings: NUGC-4 model; 9.6 mg/kg QD5 (days 0, 5, 10)
Procedure: The fluorescence area of the tumor was measured over the course of the study (FIG. 13). After approximately Day 15 in the mice administered PBS, the formation of bloody ascites blocked the fluorescence reading. […] FIG. 14 is a graph comparing the fluorescence area on Day 21 of the study of the mice administered vehicle and the mice administered Compound 3. FIG. 15 is a graph comparing the tumor weight of the mice administered vehicle and the mice administered Compound 3 on Day 21.

[6] = analyte: Taxol, IP single dose, Cmpd 3 / Cmpd 5 38.4 mg/kg, Taxol 10 mg/kg
[7] = analyte: the administered conjugate, 38.4 mg/kg IP single dose

Structure (SMILES) | Taxol/Cmpd AUC Ratio ([1]; 38.4 mg/kg IP single dose) | Cmax of parent compound, fold higher than that of Compound 3 ([1]; 38.4 mg/kg IP) | AUMC0-t (h*h*nmol/L) [1, 6] | AUMC0-t (h*h*nmol/L) [1, 7] [h*h*nmol/L] | cancer cell inhibition compared to Compound 5 (FIG. 1) [2] | anti-proliferation effect compared to Taxol and Compound 5 (FIG. 2B) [3] | AUC ratio Taxol/compound, times higher than AUC ratio of Taxol/Compound 5 ([1]; 38.4 mg/kg IP) [times] | T1/2 of released Taxol, longer than that of Taxol released from Compound 5 ([1]; 38.4 mg/kg IP) [%] | fluorescence area of the tumor over the course of the study (FIG. 10) [4] | fluorescence area of the tumor over the course of the study (FIG. 13) [5]
CC(=O)N[C@H](CSSCCCC(=O)O[C@@H](C(=O)O[C@H]1C[C@@]2(O)[C@@H](OC(=O)c3ccccc3)[C@@H]3[C@]4(OC(C)=O)CO[C@@H]4C[C@H](O)[C@@]3(C)C(=O)[C@H](OC(C)=O)C(=C1C)C2(C)C)[C@@H](NC(=O)c1ccccc1)c1ccccc1)C(=O)N[C@H](CCCNC(=N)N)C(=O)N[C@H](CCCNC(=N)N)C(=O)N[C@H](CCCNC(=N)N)C(=O)N[C@H](CCCNC(=N)N)C(=O)N[C@H](CCCNC(=N)N)C(=O)N[C@H](CCCNC(=N)N)C(=O)N[C@H](CCCNC(=N)N)C(=O)N[C@H](CCCNC(=N)N)C(N)=O [Compound 5, Ac-D-Cysteine (paclitaxel-4-mercaptobutanoate)-D-Arginine8-NH2] | 3.942 | over 100 fold | 3274.99 h*h*nmol/L | 830.67 | – | – | – | – | – | –
CC(=O)N[C@@H](CSSCCCC(=O)OC(C(=O)O[C@H]1C[C@@]2(O)[C@@H](OC(=O)c3ccccc3)[C@@H]3[C@]4(OC(C)=O)CO[C@@H]4C[C@H](O)[C@@]3(C)C(=O)[C@H](OC(C)=O)C(=C1C)C2(C)C)[C@@H](NC(=O)c1ccccc1)c1ccccc1)C(=O)N[C@H](CCCNC(=N)N)C(=O)N[C@H](CCCNC(=N)N)C(=O)N[C@H](CCCNC(=N)N)C(=O)N[C@H](CCCNC(=N)N)C(=O)N[C@H](CCCNC(=N)N)C(=O)N[C@H](CCCNC(=N)N)C(=O)N[C@H](CCCNC(=N)N)C(=O)N[C@H](CCCNC(=N)N)C(N)=O (stereo partly drawn) [Compound 3, Ac-L-Cysteine (paclitaxel-4-mercaptobutanoate)-D-Arginine8-NH2] | 81.84 | – | 72,372.302 h*h*nmol/L | 26.304 | substantially superior to cancer cell inhibition compared to Compound 5 at all tested concentrations | greater than the anti-proliferation effect of Taxol and Compound 5 | 20 | 33.3 | fluorescence area increased in the vehicle-administered mice to a greater degree over the course of the study compared to the Compound 3-administered mice | fluorescence decreased over the course of the study

From patent publication US12337037B2, “Taxol conjugate compounds, pharmaceutical compositions comprising the same, and methods for their use” (N1 Life, Inc, priority 2021, dated 2025)
